# Measurements reported in article PMC3834835, “Crystal structure of RuvC resolvase in complex with Holliday junction substrate” (Nucleic Acids Research, 2013).
# Changes are numbered by the printed parent chain.
# T1: Tt-RuvC E70Q (Thermus thermophilus, UniProt Q5SJC4 1-166, E70Q)
# T1 sequence: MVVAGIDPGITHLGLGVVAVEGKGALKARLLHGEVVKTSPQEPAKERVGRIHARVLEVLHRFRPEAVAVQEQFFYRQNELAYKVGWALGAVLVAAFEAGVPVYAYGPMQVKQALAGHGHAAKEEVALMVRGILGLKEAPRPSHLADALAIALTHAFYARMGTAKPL
# T2: Tt-RuvC E70Q L80C (Thermus thermophilus, UniProt Q5SJC4 1-166, E70Q;L80C)
# T2 sequence: T1 sequence with L80C
# T3: Tt-RuvC E70Q R76C (Thermus thermophilus, UniProt Q5SJC4 1-166, E70Q;R76C)
# T3 sequence: T1 sequence with R76C
# T4: Tt-RuvC E70Q Q77C (Thermus thermophilus, UniProt Q5SJC4 1-166, E70Q;Q77C)
# T4 sequence: T1 sequence with Q77C
# T5: Tt-RuvC E70Q M108C (Thermus thermophilus, UniProt Q5SJC4 1-166, E70Q;M108C)
# T5 sequence: T1 sequence with M108C
# T6: Tt-RuvC E70Q T11C (Thermus thermophilus, UniProt Q5SJC4 1-166, E70Q;T11C)
# T6 sequence: T1 sequence with T11C
# T7: Tt-RuvC E70Q P40C (Thermus thermophilus, UniProt Q5SJC4 1-166, E70Q;P40C)
# T7 sequence: T1 sequence with P40C
# T8: Tt-RuvC E70Q R140C (Thermus thermophilus, UniProt Q5SJC4 1-166, E70Q;R140C)
# T8 sequence: T1 sequence with R140C
# B1: RuvC protein from T. thermophilus (Tt-RuvC), unliganded (apo) crystal form (enzyme)
# chain: T1 sequence with Q70E
# modifications: selenomethionine-substituted protein (SAD data)
# notes: RuvC Holliday junction resolvase, Thermus thermophilus; No PDB id is printed for the apo structure; also called apo Tt-RuvC; RuvC resolvase; source: E. coli, purified (nickel column, tag cleavage, Mono-S column)
# B2: HJ J221/J222 (structured_DNA)
# DNA 1: CAATCGGCTTTGACCTTTGGTCAATCGGCAGAT
# DNA 2: ATCTGCCGATTCTGGTTTCCAGAAAGCCGATTG
# B3: HJ-26-h (structured_DNA)
# DNA 1: B2 DNA 1 with T10A, A24T, C26G
# DNA 2: B2 DNA 2 with G8C, G22C
# modifications: thiol on guanine 26 of one strand
# B4: HJ-8-h (structured_DNA)
# DNA 1: B2 DNA 1 with C8G, T10A, A24T
# DNA 2: B2 DNA 2 with C20T, G26C
# modifications: thiol on guanine 8 of one strand
# B5: HJ-25-h (structured_DNA)
# DNA 1: CAATCGGCCAAGACCTTTGGTCTTGCGGCAGAT
# DNA 2: ATCTGCCGCATATGGTTTCCAGATGGCCGATTG
# modifications: thiol on guanine 25 of one strand
# B6: HJ-25 (structured_DNA)
# DNA 1: B5 DNA 1
# DNA 2: B5 DNA 2
# modifications: thiol (cysteamine) on position 2 of guanine 25 of both strands
# B7: HJ-28bb (structured_DNA)
# DNA 1: GACGGCCTCGCAATCGACTATGACCGAGCACGCGAGATGT
# DNA 2: ACATCTCGCGTGCTCGGTCATTCTGCAGATGCGGAGTGAA
# DNA 3: TTCACTCCGCATCTGCAGATTCTGGCTGTGGCGTGTTTCT
# DNA 4: AGAAACACGCCACAGCCAGAAAGTCGATTGCGAGGCCGTC
# modifications: thiol tether on phosphate after nt 24 of strands 2 and 4
# B8: HJ-29bb-h (structured_DNA)
# DNA 1: B7 DNA 1 with G16A, A17G
# DNA 2: B7 DNA 2
# DNA 3: B7 DNA 3 with C16A, A17C
# DNA 4: B7 DNA 4 with T24C, C25T
# modifications: thiol tether on phosphate after nt 25 of strand 4 only; the table lists one shared single B strand (S19) for HJ-28/29
# B9: HJ-28bb-h (structured_DNA)
# DNA 1: B7 DNA 1
# DNA 2: B7 DNA 2
# DNA 3: B7 DNA 3
# DNA 4: B7 DNA 4
# modifications: thiol tether on phosphate after nt 24 of strand 4 only
# B10: HJ-29bb (structured_DNA)
# DNA 1: B7 DNA 1 with G16A, A17G
# DNA 2: B7 DNA 2 with T24G, G25T
# DNA 3: B7 DNA 3 with C16A, A17C
# DNA 4: B7 DNA 4 with T24C, C25T
# modifications: thiol tether on phosphate after nt 25 of strands 2 and 4
# B11: HJ-3bb (structured_DNA)
# DNA 1: B7 DNA 1 with A13T, A17G
# DNA 2: B7 DNA 2 with T24G, G28A, A29G
# DNA 3: B7 DNA 3 with T12C, C13T, A17C
# DNA 4: B7 DNA 4 with T24C, T28A
# modifications: thiol tether on phosphate after nt 13 of strands 1 and 3
# Key:
# [1] = molecular target: Tt-RuvC as crystallised in complex with a synthetic Holliday junction (T. thermophilus) (UniProt Q5SJC4); assay: crystal structure; Tt-RuvC with synthetic Holliday junction (oligonucleotides J221 and J222), crystals from 0.3-0.5 M ammonium phosphate; molecular replacement, 3.75 Å; asymmetric unit holds a RuvC dimer and one HJ
# [2] = molecular target: the molecule itself; assay: crystal structure; apo Tt-RuvC, crystals from 0.1 M citric acid (pH 3.5) and 1.5 M NaCl; SAD, 1.35 Å; asymmetric unit holds a RuvC dimer
# Tt-RuvC E70Q = molecular target: T1, Tt-RuvC E70Q; assay: X-ray crystallography (3.75 A); 0.3-0.5 M ammonium phosphate; Cross-linking: 100 mM NaCl, 10 mM HEPES pH 7.0, 0.5 mM DTT, 15% glycerol, 5 mM MgCl2 (+100 mM KCl for backbone thiols), protein:DNA 1:1, 37 C 2.5 h then 25 C overnight; conditions: protein: recombinant; tags: none (N-terminal His-tag removed with PreScission protease); chain copies: 2; Holliday junction of 2 strands, TTT loops on two arms
# Tt-RuvC E70Q L80C = molecular target: T2, Tt-RuvC E70Q L80C; assay: site-specific thiol cross-linking; 5 mM Mg2+; Cross-linking: 100 mM NaCl, 10 mM HEPES pH 7.0, 0.5 mM DTT, 15% glycerol, 5 mM MgCl2 (+100 mM KCl for backbone thiols), protein:DNA 1:1, 37 C 2.5 h then 25 C overnight; conditions: protein: recombinant, tags: N-terminal His-tag, chain copies: 2, Holliday junction of 2 strands, TTT loops
# Tt-RuvC E70Q R76C = molecular target: T3, Tt-RuvC E70Q R76C; assay: site-specific thiol cross-linking; 5 mM Mg2+; high efficiency; Cross-linking: 100 mM NaCl, 10 mM HEPES pH 7.0, 0.5 mM DTT, 15% glycerol, 5 mM MgCl2 (+100 mM KCl for backbone thiols), protein:DNA 1:1, 37 C 2.5 h then 25 C overnight; conditions: protein: recombinant; tags: N-terminal His-tag; chain copies: 2; Holliday junction of 2 strands, TTT loops, 2 bp homology core
# Tt-RuvC E70Q Q77C = molecular target: T4, Tt-RuvC E70Q Q77C; assay: as above; conditions: protein: recombinant; tags: N-terminal His-tag; chain copies: 2; Holliday junction of 2 strands, TTT loops, 2 bp homology core
# Tt-RuvC E70Q M108C = molecular target: T5, Tt-RuvC E70Q M108C; assay: site-specific thiol cross-linking; 5 mM Mg2+, 100 mM KCl; Cross-linking: 100 mM NaCl, 10 mM HEPES pH 7.0, 0.5 mM DTT, 15% glycerol, 5 mM MgCl2 (+100 mM KCl for backbone thiols), protein:DNA 1:1, 37 C 2.5 h then 25 C overnight; conditions: protein: recombinant; tags: N-terminal His-tag; chain copies: 2; Holliday junction of 4 strands, immobile
# Tt-RuvC E70Q T11C [3] = molecular target: T6, Tt-RuvC E70Q T11C; assay: site-specific thiol cross-linking; 5 mM Mg2+, 100 mM KCl; most efficient; Cross-linking: 100 mM NaCl, 10 mM HEPES pH 7.0, 0.5 mM DTT, 15% glycerol, 5 mM MgCl2 (+100 mM KCl for backbone thiols), protein:DNA 1:1, 37 C 2.5 h then 25 C overnight; conditions: protein: recombinant; tags: N-terminal His-tag; chain copies: 2; Holliday junction of 4 strands, immobile
# Tt-RuvC E70Q T11C [4] = molecular target: T6, Tt-RuvC E70Q T11C; assay: site-specific thiol cross-linking; 5 mM Mg2+, 100 mM KCl; single modification; Cross-linking: 100 mM NaCl, 10 mM HEPES pH 7.0, 0.5 mM DTT, 15% glycerol, 5 mM MgCl2 (+100 mM KCl for backbone thiols), protein:DNA 1:1, 37 C 2.5 h then 25 C overnight; conditions: protein: recombinant; tags: N-terminal His-tag; chain copies: 2; Holliday junction of 4 strands
# Tt-RuvC E70Q P40C [5] = molecular target: T7, Tt-RuvC E70Q P40C; assay: as above; conditions: protein: recombinant; tags: N-terminal His-tag; chain copies: 2; Holliday junction of 4 strands
# Tt-RuvC E70Q P40C [6] = molecular target: T7, Tt-RuvC E70Q P40C; assay: site-specific thiol cross-linking; 5 mM Mg2+, 100 mM KCl; most efficient; Cross-linking: 100 mM NaCl, 10 mM HEPES pH 7.0, 0.5 mM DTT, 15% glycerol, 5 mM MgCl2 (+100 mM KCl for backbone thiols), protein:DNA 1:1, 37 C 2.5 h then 25 C overnight; conditions: protein: recombinant; tags: N-terminal His-tag; chain copies: 2; Holliday junction of 4 strands, immobile
# Tt-RuvC E70Q R140C = molecular target: T8, Tt-RuvC E70Q R140C; assay: site-specific thiol cross-linking; 5 mM Mg2+, 100 mM KCl; Cross-linking: 100 mM NaCl, 10 mM HEPES pH 7.0, 0.5 mM DTT, 15% glycerol, 5 mM MgCl2 (+100 mM KCl for backbone thiols), protein:DNA 1:1, 37 C 2.5 h then 25 C overnight; conditions: protein: recombinant; tags: N-terminal His-tag; chain copies: 2; Holliday junction of 4 strands, immobile
molecule,measurement,setting,value
Tt-RuvC as crystallised in complex with a synthetic Holliday junction (from UniProt Q5SJC4 1-166) (enzyme),stoichiometry N,[1],2
B1,stoichiometry N,[2],2
B2,binding result,Tt-RuvC E70Q,binds
B3,binding result,Tt-RuvC E70Q L80C,binds
B4,binding result,Tt-RuvC E70Q L80C,binds
B5,binding result,Tt-RuvC E70Q L80C; 2 bp homology core,binds
B6,binding result,Tt-RuvC E70Q R76C,binds
same,binding result,Tt-RuvC E70Q Q77C,binds
B7,binding result,Tt-RuvC E70Q M108C,binds
same,binding result,Tt-RuvC E70Q T11C [3],binds
B8,binding result,Tt-RuvC E70Q T11C [4],binds
B9,binding result,Tt-RuvC E70Q P40C [5],binds
B10,binding result,Tt-RuvC E70Q M108C,binds
same,binding result,Tt-RuvC E70Q P40C [6],binds
B11,binding result,Tt-RuvC E70Q R140C,binds
